Reference: paper PMC10272880

Biological target: T1, LldR (Escherichia coli K-12 W3110 type-A) (UniProt P0ACL7)
T1 sequence: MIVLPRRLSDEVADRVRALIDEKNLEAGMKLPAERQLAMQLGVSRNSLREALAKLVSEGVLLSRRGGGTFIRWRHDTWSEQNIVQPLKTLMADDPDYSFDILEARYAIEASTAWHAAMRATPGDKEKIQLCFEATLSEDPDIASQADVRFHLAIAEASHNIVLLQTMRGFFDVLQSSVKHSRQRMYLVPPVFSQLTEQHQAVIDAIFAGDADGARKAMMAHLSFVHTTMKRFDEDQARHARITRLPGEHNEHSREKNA
Test: EMSA
Conditions: EMSA: binding buffer (composition given for gSELEX: 10 mM Tris-HCl pH 7.8 at 4 °C, 3 mM Mg acetate, 150 mM NaCl, 1.25 mg/ml BSA), 37 °C 30 min, then effector …

| Sequence | binding |
| --- | --- |
| GATTTTCAACCAGATATGATCATGGTTACGCCATCTTATTGCCTTAACCTGATTGAAGAGCTGGAGCGGCAGTTGGGCGGTGATGCCAGCGGTTGCTCGCTGCGGGTTGGAGTATTTGGTGCTGAGCCGTGGACACAGGCCATGCGTAAAGAGATTGAGCGTCGCCTGGGGATCACCGCACTGGATATTTATGGCCTGTCAGAAGTGATGGGGCCGGGGGTGGCGATGGAGTGTCTGGAAACTACCGACGGCCCAACCATTTGGGAAGATCATTTCTATCCTGAAATTGTTA (double strand) [paaX promoter probe] | no binding |
| TCCCGGACCTCGTGCACAGGTAGGACCAATTTTTCTGTTCTTAACTCGCAAAACACGCACATCACGTAAGTGATTATGTTACATCAATTTAACATTGAGTTAACCAAGACAAGGTCACAGAGCTGGAAAAAAAATGGTCTGACCGGTAGCTAAAGAGATAGACGAAAACGAAAAGCCCGCTTAATAACTGTTCACAGAAGCAGCGCGCAAAAATCAGCTGCCACACAACACAACAAAGCGAAGCCTACTCATGAGCATCTTGTACGAAGAGCGTCTT (double strand) [glcD/glcC probe] | binds |
